The values below come from PMC11009412, “Pathogenic mutations of human phosphorylation sites affect protein–protein interactions” (Nature Communications, 2024).

In this test the test system is BirA*-FLAG-GATAD1 variants in Flp-In-293 cells. In words: BioID proximity labelling of full-length GATAD1 variants (SILAC). Format: cell-based, human. The following applies: GATAD1 WT vs S102P, significant proteins only; for Log2_Ratio.H.L.normalized.WT_S102P_forward: forward experiment (label swap performed, sign inverted against the H/L ratio); for Log2_Ratio.H.L.normalized.WT_S102P_forward / Log2_Ratio.H.L.normalized.WT_S102P_reverse: log2 of normalized H/L ratio; for Ratio.H.L.normalized.WT_S102P_forward: forward experiment; for Log2_Ratio.H.L.normalized.WT_S102P_reverse / Ratio.H.L.normalized.WT_S102P_reverse: reverse experiment. The source says: The GATAD1 gene variants were ordered in a pTwist ENTR Kozak vector from Twist Bioscience. The genes were then transferred to a pDEST_pcDNA5_BirA_FLAG_Nterm vector[97] using the Gateway Clonase II system (Thermo Fisher Scientific). The resulting vectors, pEXPR_GATAD1-WT_N-term_BirA_FLAG, pEXPR_GATAD1-S102P_N-term_BirA_FLAG, pEXPR_GATAD1-S102D_N-term_BirA_FLAG, and pEXPR_GATAD1-S102A_N-term_BirA_FLAG, were used to generate tetracycline-inducible stable Flp-In^TM-293 T-REx cells. A 6-well plate was co-transfected with 0.5 µg of the pEXPR plasmid and 1 µg of the pOG44 Flp-recombinase expression vector (Thermo Fisher Scientific) using 4.5 µg of PEI (Polysciences) as a transfection reagent. The following day, the cells were trypsinized and transferred to a 10 cm dish containing DMEM supplemented with 10% FCS and 200 µg/ml hygromycin B (Invivogen) for selection. The cells were cultured for approximately 18 days with media exchange every 3 days until visible colonies were observed. After around 18 days, the colonies were trypsinized and transferred to another 10 cm dish for further characterization and experiments.
Stable Flp-In^TM-293 cell lines expressing GATAD1 variants were cultured using SILAC light (Lys0, Arg0) and SILAC heavy (Lys8, Arg10) media, as explained in the cell culture section. After full labeling, cells were split into 15 cm dishes and were treated with 1 μg/mL tetracycline for 24 h to induce the expression of GATAD1. After the induction period, cells were incubated with 50 μM biotin overnight for proximity biotinylation. As a control, wild-type GATAD1 cells, without biotin or tetracycline addition, were used. Samples were multiplexed, as shown in Supplementary Fig. 41A with both forward and reverse label swap (n = 2). Cells were then lysed in lysis buffer (50 mM Tris-HCl pH 7.5, 150 mM NaCl, 1% Triton X-100, 1 mM EDTA, 1 mM EGTA, 0.1% SDS) with freshly added protease inhibitors and 1% sodium deoxycholate. To digest the excess DNA, 1 μl of Benzonase was added, and the samples were incubated for 20 min at 37 °C. Biotinylated proteins were enriched for 3 h at 4 °C using streptavidin-sepharose beads (GE Cat# 17-5113-01). Beads were pre-washed twice with 0.01% BSA and twice with lysis buffer. After enrichment, the beads were washed one time with lysis buffer, two times with washing buffer (50 mM HEPES-KOH pH 8.0, 100 mM KCl, 10% glycerol, 2 mM EDTA, 0.1% NP-40), and six times with 50 mM ammonium bicarbonate. Beads were resuspended in ammonium bicarbonate, and an on-bead protein digest with 1 μg of trypsin followed overnight. The next day, the digested proteins were transferred to a fresh tube and were incubated with 10 mM DTT for 30 min at 37 °C and with 55 mM iodoacetamide for 20 min at 37 °C in the dark. Samples were desalted with StageTips.
Peptides were separated using reversed-phase liquid chromatography (EASY nLC II 1200, Thermo Fisher Scientific) with self-made C18 microcolumns (20 cm long) packed with ReproSil-Pur C18-AQ 1.9 μm resin (Dr. Maisch, cat# r119.aq.0001). The chromatography system was coupled online to the electrospray ion source (Proxeon) of an Orbitrap Exploris 480 mass spectrometer (Thermo Fisher Scientific). The mobile phase consisted of buffer A (0.1% formic acid and 5% acetonitrile) and buffer B (0.1% formic acid and 80% acetonitrile). Peptides were eluted using a gradient with increasing concentrations of buffer B over 110 minutes, at a flow rate of 250 nl/min. Mass spectrometry data was acquired in data-dependent mode with settings for one full scan (resolution: 60,000; m/z range: 350–1600; normalized AGC target: 300%; maximum injection time: 10 ms), followed by top 20 MS/MS scans using higher-energy collisional dissociation (resolution: 15,000; m/z range: 200–2000; normalized AGC target: 100%; maximum injection time: 120 ms; isolation width: 1.3 m/z; normalized collision energy: 28%).
Raw files were analyzed with MaxQuant, version 2.0.3.0. […]

B1: GTF2E1 (protein, UniProt P29083 2-439, looked up)
General transcription factor …: ADPDVLTEVPAALKRLAKYVIRGFYGIEHALALDILIRNSCVKEEDMLELLKFDRKQLRSVLNNLKGDKFIKCRMRVETAADGKTTRHNYYFINYRTLVNVVKYKLDHMRRRIETDERDSTNRASFKCPVCSSTFTDLEANQLFDPMTGTFRCTFCHTEVEEDESAMPKKDARTLLARFNEQIEPIYALLRETEDVNLAYEILEPEPTEIPALKQSKDHAATTAGAASLAGGHHREAWATKGPSYEDLYTQNVVINMDDQEDLHRASLEGKSAKERPIWLRESTVQGAYGSEDMKEGGIDMDAFQEREEGHAGPDDNEEVMRALLIHEKKTSSAMAGSVGAAAPVTAANGSDSESETSESDDDSPPRPAAVAVHKREEDEEEDDEFEEVADDPIVMVAGRPFSYSEVSQRPELVAQMTPEEKEAYIAMGQRMFEDLFE
Regarding B1, the Log2_Ratio.H.L.normalized.WT_S102P_forward was 1.078, the Ratio.H.L.normalized.WT_S102P_forward worked out at 0.4738, the Log2_Ratio.H.L.normalized.WT_S102P_reverse was determined as 1.217 and the Ratio.H.L.normalized.WT_S102P_reverse was determined as 2.3239.

B2: TOX4 (protein, UniProt O94842 1-621, looked up)
TOX high mobility group box …: MEFPGGNDNYLTITGPSHPFLSGAETFHTPSLGDEEFEIPPISLDSDPSLAVSDVVGHFDDLADPSSSQDGSFSAQYGVQTLDMPVGMTHGLMEQGGGLLSGGLTMDLDHSIGTQYSANPPVTIDVPMTDMTSGLMGHSQLTTIDQSELSSQLGLSLGGGTILPPAQSPEDRLSTTPSPTSSLHEDGVEDFRRQLPSQKTVVVEAGKKQKAPKKRKKKDPNEPQKPVSAYALFFRDTQAAIKGQNPNATFGEVSKIVASMWDSLGEEQKQVYKRKTEAAKKEYLKALAAYKDNQECQATVETVELDPAPPSQTPSPPPMATVDPASPAPASIEPPALSPSIVVNSTLSSYVANQASSGAGGQPNITKLIITKQMLPSSITMSQGGMVTVIPATVVTSRGLQLGQTSTATIQPSQQAQIVTRSVLQAAAAAAAAASMQLPPPRLQPPPLQQMPQPPTQQQVTILQQPPPLQAMQQPPPQKVRINLQQQPPPLQIKSVPLPTLKMQTTLVPPTVESSPERPMNNSPEAHTVEAPSPETICEMITDVVPEVESPSQMDVELVSGSPVALSPQPRCVRSGCENPPIVSKDWDNEYCSNECVVKHCRDVFLAWVASRNSNTVVFVK
On to B2, for which the Log2_Ratio.H.L.normalized.WT_S102P_forward was 1.265, the Ratio.H.L.normalized.WT_S102P_forward is reported as 0.416, the Log2_Ratio.H.L.normalized.WT_S102P_reverse is on record as 1.044 and the Ratio.H.L.normalized.WT_S102P_reverse was 2.0619.

B3: TXNL1 (protein, UniProt O43396 2-289, looked up)
Thioredoxin-like protein 1: VGVKPVGSDPDFQPELSGAGSRLAVVKFTMRGCGPCLRIAPAFSSMSNKYPQAVFLEVDVHQCQGTAATNNISATPTFLFFRNKVRIDQYQGADAVGLEEKIKQHLENDPGSNEDTDIPKGYMDLMPFINKAGCECLNESDEHGFDNCLRKDTTFLESDCDEQLLITVAFNQPVKLYSMKFQGPDNGQGPKYVKIFINLPRSMDFEEAERSEPTQALELTEDDIKEDGIVPLRYVKFQNVNSVTIFVQSNQGEEETTRISYFTFIGTPVQATNMNDFKRVVGKKGESH
Take B3: the Log2_Ratio.H.L.normalized.WT_S102P_forward was determined as 1.514, the Ratio.H.L.normalized.WT_S102P_forward is on record as 0.3502, the Log2_Ratio.H.L.normalized.WT_S102P_reverse was determined as 1.19 and the Ratio.H.L.normalized.WT_S102P_reverse was 2.2812.

B4: GSTP1 (protein, UniProt P09211 2-210, looked up)
Glutathione S-transferase P: PPYTVVYFPVRGRCAALRMLLADQGQSWKEEVVTVETWQEGSLKASCLYGQLPKFQDGDLTLYQSNTILRHLGRTLGLYGKDQQEAALVDMVNDGVEDLRCKYISLIYTNYEAGKDDYVKALPGQLKPFETLLSQNQGGKTFIVGDQISFADYNLLDLLLIHEVLAPGCLDAFPLLSAYVGRLSARPKLKAFLASPEYVNLPINGNGKQ
Consider B4, for which the Log2_Ratio.H.L.normalized.WT_S102P_forward is -1.4183, the Ratio.H.L.normalized.WT_S102P_forward was 2.6727, the Log2_Ratio.H.L.normalized.WT_S102P_reverse is -1.579 and the Ratio.H.L.normalized.WT_S102P_reverse was found to be 0.3348.
